The text below walks through data of PMC2500141 (The Journal of Cell Biology, 2008).

The target of the experiment is Drp1-6His phosphorylated at Ser600 by CaMKIα (UniProt O00429-4 1-699, phosphoserine at 600 (phosphorylated in vitro by CaMKIα)). As to the kind of experiment: pull-down.

B1: GST-hFis1 (hFis1-ΔC, without 30 amino acids at the C terminus) (domain or fragment, human, UniProt Q9Y3D6 1-122, looked up)
chain: MEAVLNELVSVEDLLKFEKKFQSEKAAGSVSKSTQFEYAWCLVRSKYNDDIRKGIVLLEELLPKGSKEEQRDYVFYLAVGNYRLKEYEKALKYVRGLLQTEPQNNQAKELERLIDKAMKKDG
For B1, the binding result is recorded as “binds”.
